Experimental data from patent publication US20170174769A1 (Regeneron, published 2017).

T1: extracellular domain of human FGFR1c expressed with C-terminal V5 and hexahistidine tags (human, UniProt P11362 22-376)
T1 construct: also called hFGFR1c-V5-6His
T1 sequence: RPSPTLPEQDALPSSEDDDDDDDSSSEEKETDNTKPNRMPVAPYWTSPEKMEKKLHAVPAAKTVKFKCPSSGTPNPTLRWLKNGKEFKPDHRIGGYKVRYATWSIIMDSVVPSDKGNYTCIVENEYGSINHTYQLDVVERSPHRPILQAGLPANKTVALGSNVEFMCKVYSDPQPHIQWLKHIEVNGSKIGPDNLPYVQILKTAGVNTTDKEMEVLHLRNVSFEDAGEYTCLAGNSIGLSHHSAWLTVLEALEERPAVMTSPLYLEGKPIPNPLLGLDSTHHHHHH

T2: extracellular domain of human KLB expressed with C-terminal HA and hexahistidine tags (human, UniProt Q86Z14 1-996)
T2 construct: also called hKLB-HA-6His; hKLB-HA-6his
T2 sequence: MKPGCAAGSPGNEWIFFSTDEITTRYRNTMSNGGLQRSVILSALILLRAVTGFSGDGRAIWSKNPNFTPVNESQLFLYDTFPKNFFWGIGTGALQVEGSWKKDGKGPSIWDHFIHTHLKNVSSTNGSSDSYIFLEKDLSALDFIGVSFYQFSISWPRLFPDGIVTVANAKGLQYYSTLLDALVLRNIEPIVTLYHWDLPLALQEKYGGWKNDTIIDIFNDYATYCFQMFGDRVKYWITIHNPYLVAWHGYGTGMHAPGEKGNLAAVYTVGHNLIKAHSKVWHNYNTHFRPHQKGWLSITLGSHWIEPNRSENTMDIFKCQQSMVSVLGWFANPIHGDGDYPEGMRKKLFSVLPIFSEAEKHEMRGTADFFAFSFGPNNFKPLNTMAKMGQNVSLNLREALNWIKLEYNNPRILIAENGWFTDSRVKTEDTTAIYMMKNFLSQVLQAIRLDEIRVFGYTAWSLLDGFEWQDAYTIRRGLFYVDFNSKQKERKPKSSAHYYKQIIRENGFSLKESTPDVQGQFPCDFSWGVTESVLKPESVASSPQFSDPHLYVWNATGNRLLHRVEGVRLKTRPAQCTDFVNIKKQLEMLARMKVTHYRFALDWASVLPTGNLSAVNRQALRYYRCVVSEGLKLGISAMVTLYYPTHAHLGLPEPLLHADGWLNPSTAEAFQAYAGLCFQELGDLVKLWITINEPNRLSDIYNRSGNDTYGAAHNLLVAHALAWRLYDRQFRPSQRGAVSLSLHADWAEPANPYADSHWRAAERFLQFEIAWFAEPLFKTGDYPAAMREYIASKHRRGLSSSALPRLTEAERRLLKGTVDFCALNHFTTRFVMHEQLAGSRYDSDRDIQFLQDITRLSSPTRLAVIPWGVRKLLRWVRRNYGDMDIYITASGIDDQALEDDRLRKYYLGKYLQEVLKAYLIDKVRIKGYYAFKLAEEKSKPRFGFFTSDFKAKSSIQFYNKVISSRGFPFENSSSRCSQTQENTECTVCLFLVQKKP


Legend:
[1] = molecular target: T3, human KLB and human FGFR1c co-expressed on HEK293/hKLB/hFGFR1c/SRE-luc cells (human, UniProt Q86Z14 1-1044; P11362 22-822); experiment: cell-based or functional assay
[2] = molecular target: M. fascicularis KLB and human FGFR1c co-expressed on HEK293/MfKLB/hFGFR1c/SRE-Luc cells (M. fascicularis; human, UniProt A0A2K5WB58 1-1044); experiment: cell-based or functional assay
[3] = molecular target: T1, extracellular domain of human FGFR1c …; experiment: SPR, mAb captured, 37 C
Description: (§1) Equilibrium dissociation constants (KD values) for human KLB or human FGFR1c binding to purified anti-KLB/FGFR1c monoclonal antibodies were determined using a real-time surface plasmon resonance biosensor using a Biacore T-200 or 4000 instrument. The Biacore sensor surface was derivatized by amine coupling with either a polyclonal rabbit anti-mouse antibody (GE, # BR-1008-38) or with a monoclonal mouse anti-human Fc antibody (GE, # BR-1008-39) to capture anti-KLB/FGFR1c monoclonal antibodies expressed with either a mouse Fc or a human Fc, respectively. All Biacore binding studies were performed in a buffer composed of 0.01M HEPES pH 7.4, 0.15M NaCl, 3mM EDTA, 0.05% v/v Surfactant P20 (HBST running buffer). […] Association of hKLB-HA-6His or hFGFR1c-V5-6His to the captured monoclonal antibody was monitored for 3.5 to 4 minutes and the dissociation of hKLB-HA-6His or hFGFR1c-V5-6His in HBST running buffer was monitored for 8-12 minutes. All the binding kinetics experiments were performed at 25° C. or 37° C. Kinetic association (kₐ) and dissociation (kd) rate constants were determined by fitting the real-time sensorgrams to a 1:1 binding model using Scrubber 2.0c curve fitting software. Binding dissociation equilibrium constants (KD) and dissociative half-lives (t½) were calculated from the kinetic rate constants as: […]

[4] = molecular target: T2, extracellular domain of human KLB …; experiment: SPR, mAb captured, 37 C
Description: as §1

[5] = molecular target: T3, human KLB and human FGFR1c co-expressed …; experiment: cell-based or functional assay; remark: listed apart in the source
[6] = molecular target: T1, extracellular domain of human FGFR1c …; experiment: SPR, mAb captured, 25 C
Description: as §1

[7] = molecular target: T2, extracellular domain of human KLB …; experiment: SPR, mAb captured, 25 C
Description: as §1

Row | EC50, SRE-luc activation without ligand [1] | Maximum Activation (%) without ligand [1] | IC50, inhibition of 10 nM mfFGF21 [2] | Maximum Inhibition (%) of 10 nM mfFGF21 [2] | 180 nM hFGFR1c-V5-6His Bind (RU) [3] | 20 nM hKLB-HA-6His Bind (RU) [4] | Kd [4] | koff [4] | kon [4] | t1/2 [4] | IC50, inhibition of 1 nM hFGF21 [5] | Maximum Inhibition (%) of 1 nM hFGF21 [5] | 180 nM hFGFR1c-V5-6His Bind (RU) [6] | 20 nM hKLB-HA-6His Bind (RU) [7] | Kd [7] | koff [7] | kon [7] | t1/2 [7] | binding result [6] | EC50, SRE-luc activation without ligand [2] | Binder | further results
1 | 68 pM | 1% | 26 pM | 46% | 0.6 RU | 211 RU | 0.222 nM | 0.00018 s⁻¹ | 812000 M⁻¹ s⁻¹ | 64.1 min | 67 pM | 65% | -1.2 RU | 147 RU | 0.218 nM | 9.8e-05 s⁻¹ | 449000 M⁻¹ s⁻¹ | 118 min | – | – | H2aM8093N (antibody, V domains shown, mouse IgG2 Fc (H2aM prefix)) VH: QVQLVQSGAEVKRPGSSVKVSCKASGDTFSTYAISWVRQAPGQGLEWMGGIIPVFGTTNYAQKFQDRVTITTDESTRTAYMELSSLRSEDTAVYYCAGIAGPDYWGQGTLVTVSS VL: DIQMTQSPSSLSASVGDRVTITCRASQGIRNYLAWFQQKPGKAPKSLIYLATSLQSGVPSKFSGSGSGTDFTLTISSLQPEDFATYYCQQYYSYPWTFGQGTKVEIK | –
2 | 53 pM | 1% | 30 pM | 47% | 0.4 RU | 118 RU | 0.206 nM | 0.000144 s⁻¹ | 699000 M⁻¹ s⁻¹ | 80.3 min | 90 pM | 65% | -1.8 RU | 77.6 RU | 0.11 nM | 5.02e-05 s⁻¹ | 455000 M⁻¹ s⁻¹ | 230 min | – | – | H1M8115N (antibody, V domains shown, H1M Fc prefix (mouse Fc)) VH: QVQLVQSGAEVKKPGSSVKVSCKASGGTFSTYEISWVRQAPGQGLEWMGGIIPVFGTTHYAQKFQDSVTITTDESTGTAFMELSSLKSEDTAVYYCARGGAGGDNWGQGTLVTVSS VL: not shown | –
3 | 300 pM | 6% | 790 pM | 91% | 0.3 RU | -0.5 RU | – | – | – | – | 650 pM | 91% | 0.1 RU | -0.4 RU | – | – | – | – | no binding (tested: 180 nM) | 180 pM | H4H8856P (antibody, V domains shown, human IgG4 Fc (H4H prefix)) VH: QVQLQESGPGLVKPSETLSLTCTVSGGSISSYYWSWIRQPPGKGLEWIAYIYYSGITKYNPSLKSRVTISADTSKNQFSLKLSSVTAADTAVYYCARHGIFGVMEYFQRWGQGTLVTVSS VL: DIQMTQSPSSLSASIGDRVTITCQASQDISNFLNWYQQKPGKAPTLLIYDVSNMETGVPSRFSGSGYGTDFTLTISSLKPEDIATYYCQQYDNIPLTFGGGTKVEIK | Maximum Activation (%) without ligand [2]: 5%

Continued, binder first:

Row | Binder | EC50, SRE-luc activation without ligand [1] | Maximum Activation (%) without ligand [1] | IC50, inhibition of 10 nM mfFGF21 [2] | Maximum Inhibition (%) of 10 nM mfFGF21 [2] | 180 nM hFGFR1c-V5-6His Bind (RU) [3] | 20 nM hKLB-HA-6His Bind (RU) [4] | Kd [4] | koff [4] | kon [4] | t1/2 [4] | IC50, inhibition of 1 nM hFGF21 [5] | Maximum Inhibition (%) of 1 nM hFGF21 [5] | 180 nM hFGFR1c-V5-6His Bind (RU) [6] | 20 nM hKLB-HA-6His Bind (RU) [7] | Kd [7] | koff [7] | kon [7] | t1/2 [7] | binding result [6] | EC50, SRE-luc activation without ligand [2] | further results
4 | H2aM8109N (antibody, V domains shown, mouse IgG2 Fc (H2aM prefix)) VH: QVQVVESGGGVVQPGRSLRLSCAASGFTFSSYGLHWVRQAPGKGLEWVAVIWHDGSHKYYADSVKGRFTISRDNSKNTLYLQMNSLRAEDTAVYYCARDGIPVAEDYYFYGMDVWGQGTTVTVSS VL: DIQMTQSPSSLSASVGDRVTITCRASQGIRNDLGWYQQKPGKAPKRLIYAASSLQSGVPSRFSGSGSGTEFTLTISSLQPEDFAIYYCLQHNSLTFGGGTKVEIK | 3300 pM | 0.5% | 190 pM | 32% | 0.7 RU | 36.8 RU | 6.2 nM | 0.00131 s⁻¹ | 211000 M⁻¹ s⁻¹ | 8.8 min | 33 pM | 23% | -0.7 RU | 21.3 RU | 4.44 nM | 0.000449 s⁻¹ | 101000 M⁻¹ s⁻¹ | 25.7 min | – | – | –
5 | H4H8837P (antibody, V domains shown, human IgG4 Fc (H4H prefix)) VH: QVQLVESGGGVVQPGRSLRLSCAASGFTFNSYAMHWVRQAPGMGLEWVAVISSDGSNKYYADSVRGRFTVSRDNSKNTLYLQMNSLRSEDTAVYYCAKDGRGYSSFSHFGMDVWGQGTTVTVSS VL: DIQMTQSPSTLSASVGDRVTITCRASQSIGSWLAWYQQKPGKAPKLLIYKTSSLESGVPSRFSGSGSGTEFTLTISSLQPDDFASYYCQQYNSYSFGQGTKVEIK | 120 pM | 1% | 89 pM | 51% | 0.1 RU | 372 RU | 0.401 nM | 0.000128 s⁻¹ | 320000 M⁻¹ s⁻¹ | 90.1 min | 80 pM | 51% | 0.2 RU | 63 RU | 0.367 nM | 0.000128 s⁻¹ | 350000 M⁻¹ s⁻¹ | 90 min | no binding (tested: 180 nM) | – | –
6 | H4H8852P (antibody, V domains shown, human IgG4 Fc (H4H prefix)) VH: QVQLQESGPGLVKPSETLSLTCTVSGGSISSYYWSWIRQPPGKGLEWIGYIYSSGIIKYNPSLKSRVTISADTSKNQFSLKLSSVTAADTAVYYCARHGIFGVMEYFQRWGQGTLVTVSS VL: DIQMTQSPSSLSASIGDRVTITCQASQDIGNFLNWYQQKPGKAPTLLIYDASNMETGVPSRFSGSGSGTYFTFTISSLQPEDVATYYCQQYDNLPLTFGGGTKVEIK | 210 pM | 5% | 470 pM | 101% | 1 RU | 5.1 RU | – | – | – | – | 380 pM | 101% | 0 RU | -0.2 RU | – | – | – | – | no binding (tested: 180 nM) | 46 pM | Maximum Activation (%) without ligand [2]: 5%
